B1: P5A-1B6 (full-length IgG) (antibody, V domains shown)
VH: QVQLVESGGGVVQPGRSLRLSCAASGFTFSSYAMHWVRQAPGKGLEWVAVISYDGSNKYYADSVKGRFTISRDNSKNTLYLQMNSLRAEDTAVYYCARDGQAITMVQGVIGPPFDYWGQGTLVTVSS
VL: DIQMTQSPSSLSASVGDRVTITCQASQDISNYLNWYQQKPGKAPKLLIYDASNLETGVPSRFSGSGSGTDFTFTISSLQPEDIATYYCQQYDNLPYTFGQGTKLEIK
B2: P2B-1A1 (full-length IgG) (antibody, V domains shown)
VH: QVQLQESGPGLVKPSETLSLTCTVSGGSISSYYWSWIRQPPGKGLEWIGYIYYSGSTNYNPSLKSRVTISVDTSKKQFSLKLSSVTAADTAVYYCARLERDWPLDAFDIWGQGTMVTVSS
VL: QSALTQPASVSGSPGQSITISCTGTSSDVGGYNYVSWYQQHPGKAPKFMIYDVSKRPSGVSNRFSGSKSGNTASLTISGLQAEDEADYYCSSYTSNNTFAFGGGTKLTVL
B3: P5A-1B9 (full-length IgG) (antibody, V domains shown)
VH: QVQLQESGPGLVKPSETLSLTCTVSGGSISSYYWSWIRQPPGKGLEWIGYISYSGSTNYNPSLKSRVTISLDTSKNQFSLKLSSVTAADTAVYYCASNGQYYDILTGQPPDYWYFDLWGRGTLVTVSS
VL: not shown
B4: P5A-2G9 (full-length IgG) (antibody, V domains shown)
VH: QVQLVESGGGVVQPGRSLRLSCAASGFTFSSYGMHWVRQAPGKGLEWVAVIWYDGSNKYYADSVKGRFTISRDNSKNTLYLQMNSLRAEDTAVYYCARWFHTGGYFDYWGQGTLVTVSS
VL: QPVLTQPPSSSASPGESARLTCTLPSDINVSSYNIYWYQQKPGSPPRYLLYYYSDSDKGQGSGVPSRFSGSKDASANTGILLISGLQSEDEADYYCMIWPSNALYVFGTGTKVTVL
B5: P2B-1A10 (full-length IgG) (antibody, V domains shown)
VH: EVQLVESGGGLIQPGGSLRLSCAASGFTVSSNYMSWVRQAPGKGLEWVSVIYSGGSTYYADSVKGRFTISRDNSKNTLYLQMNSLRAEDTAVYYCAREGPKSITGTAFDIWGQGTIVTVSS
VL: DIQMTQSPSSLSASVGDRVTITCQASQDISNYFNWYQQKPGKAPKLLIYDASNLETGVPSRFSGSGSGTDFTFTISSLQPEDIATYYCQQYDNLPMYTFGQGTKLEIK
B6: P5A-2G7 (full-length IgG) (antibody, V domains shown)
VH: QVQLQESGPGLVKPSETLSLTCTVSGDSVSSGSYYWSWIRQPPGKGLEWIGYIYYSGSTNYNPSLKSRVTISVDTSKNQFSLKLSSVTAADTAVYYCARERCYYGSGRAPRCVWFDPWGQGTLVTVSS
VL: QSALTQPASVSGSPGQSITISCTGTSSDVGGYNYVSWYQQHPGKAPKLMIYDVSNRPSGVSNRFSGSKSGNTASLTISGLQAEDEADYYCSSYTSSSTLVVFGGGTKLTVL
B7: P5A-2F11 (full-length IgG) (antibody, V domains shown)
VH: QVQLVQSGAEVKKPGASVKVSCKASGYTFTSYDINWVRQATGQGLEWMGWMNPNSGNTGYAQKFQGRVTMTRNTSISTAYMELSSLRSEDTAVYYCARYIVVVPAAKGFDPWGQGTLVTVSS
VL: not shown
B8: P5A-3C12 (full-length IgG) (antibody, V domains shown)
VH: QITLKESGPTLVKPTQTLTLTCTFSGFSLSTSGVGVGWIRQPPGKALEWLALIYWDDDKRYSPSLKSRLTITKDTSKNQVVLTMTNMDPVDTATYYCAHSLFLTVGYSSSWSPFDYWGQGTLVTVSS
VL: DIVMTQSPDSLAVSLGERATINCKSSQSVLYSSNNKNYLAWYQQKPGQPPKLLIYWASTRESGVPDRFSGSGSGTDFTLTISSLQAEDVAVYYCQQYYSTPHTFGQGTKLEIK
B9: P5A-1B8 (full-length IgG) (antibody, V domains shown)
VH: EVQLVESGGGLIQPGGSLRLSCAASGFTVSSNYMSWVRQAPGKGLEWVSVIYPGGSTFYADSVKGRFTISRDNSKNTLYLQMNSLRAEDTAVYYCARETLAFDYWGQGTLVTVSS
VL: DIQLTQSPSFLSASVGDRVTITCRASQGISSYLAWYQQKPGKAPKLLIYAASTLQSGVPSRFSGSGSGTEFTLTISSLQPEDFATYYCQQLNSYPPAFGGGTKVEIK

Each binder was assayed against T1, SARS-CoV-2 RBD (residues Arg319–Phe541) (SARS-CoV-2, UniProt P0DTC2) (assay: SPR). Conditions: both partners purified.
In the case of B1, the Kd is reported as 1.01 nM.
Binder B2 has a Kd of 27 nM.
B3 gave a Kd of 0.75 nM.
Work on B4 yielded a Kd of 6.98 nM.
With B5 the Kd was 50.8 nM.
B6 was tested, and the Kd was 3.55 nM.
With B7 the Kd was 5.33 nM.
In the case of B8, the Kd is reported as 1.03 nM.
With B9 the Kd was 1.09 nM.

These binders were tested against T1, SARS-CoV-2 RBD (residues Arg319–Phe541) (assay: cell-based or functional assay). Conditions: not given.
In the case of B1, the other is reported as 76%.
In the case of B2, the other is reported as -9.7%.
Binder B3 has an other of 43.8%.
With B4 the other was 84.9%.
With B5 the other was 81.8%.
In the case of B6, the other is reported as 57.2%.
B7 showed an other of 56.2%.
B8 showed an other of 54.5%.
B9 showed an other of 79.6%.
